Measured values published in paper PMC5314766.

How the values were obtained:
Test in all cases: fluorescence polarization
[1] = biological target: Exo10(6exo-) Lasso (Saccharomyces cerevisiae, UniProt Q12149;P46948;Q12277;P25359;Q05636;P53256;P48240;P38792;Q08285;P53859 …, D238N)
[2] = biological target: T1, Rrp6 Lasso (CTD intact), catalytically dead (Saccharomyces cerevisiae, UniProt Q12149 128-733, D238N)
T1 sequence: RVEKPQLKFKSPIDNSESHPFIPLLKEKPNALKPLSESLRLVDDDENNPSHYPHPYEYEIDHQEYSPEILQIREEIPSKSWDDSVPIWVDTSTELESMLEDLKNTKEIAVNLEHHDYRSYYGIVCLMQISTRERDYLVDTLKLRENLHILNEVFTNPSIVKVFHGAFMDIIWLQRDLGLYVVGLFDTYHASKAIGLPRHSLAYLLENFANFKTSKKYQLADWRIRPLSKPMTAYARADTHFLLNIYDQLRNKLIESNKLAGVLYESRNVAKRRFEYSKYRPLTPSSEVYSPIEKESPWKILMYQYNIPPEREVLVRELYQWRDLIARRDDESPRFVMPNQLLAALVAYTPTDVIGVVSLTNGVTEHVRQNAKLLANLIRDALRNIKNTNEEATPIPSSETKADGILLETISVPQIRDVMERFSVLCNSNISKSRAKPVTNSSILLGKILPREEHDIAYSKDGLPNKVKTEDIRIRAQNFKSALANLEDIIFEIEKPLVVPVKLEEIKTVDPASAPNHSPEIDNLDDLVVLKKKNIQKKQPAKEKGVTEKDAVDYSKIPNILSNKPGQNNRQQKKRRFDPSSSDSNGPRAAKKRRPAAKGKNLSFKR

[3] = biological target: T2, Rrp6 EARless, catalytically dead (Saccharomyces cerevisiae, UniProt Q12149 128-733, D238N;del517-617)
T2 sequence: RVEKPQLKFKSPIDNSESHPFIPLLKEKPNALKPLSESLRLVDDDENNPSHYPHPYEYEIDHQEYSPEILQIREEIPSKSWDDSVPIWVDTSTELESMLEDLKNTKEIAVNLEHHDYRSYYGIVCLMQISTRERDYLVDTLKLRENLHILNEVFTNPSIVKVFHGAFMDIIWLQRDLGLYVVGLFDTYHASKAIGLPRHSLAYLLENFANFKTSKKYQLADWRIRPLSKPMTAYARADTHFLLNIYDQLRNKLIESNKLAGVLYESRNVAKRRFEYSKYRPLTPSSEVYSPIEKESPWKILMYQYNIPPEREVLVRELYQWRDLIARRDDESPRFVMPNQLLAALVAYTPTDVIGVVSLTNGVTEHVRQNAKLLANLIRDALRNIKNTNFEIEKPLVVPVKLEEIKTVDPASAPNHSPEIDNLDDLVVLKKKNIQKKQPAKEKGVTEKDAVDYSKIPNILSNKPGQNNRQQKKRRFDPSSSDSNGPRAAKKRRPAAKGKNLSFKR

[4] = biological target: T3, Rrp6 Lassoless, catalytically dead (Saccharomyces cerevisiae, UniProt Q12149 128-634, D238N)
T3 sequence: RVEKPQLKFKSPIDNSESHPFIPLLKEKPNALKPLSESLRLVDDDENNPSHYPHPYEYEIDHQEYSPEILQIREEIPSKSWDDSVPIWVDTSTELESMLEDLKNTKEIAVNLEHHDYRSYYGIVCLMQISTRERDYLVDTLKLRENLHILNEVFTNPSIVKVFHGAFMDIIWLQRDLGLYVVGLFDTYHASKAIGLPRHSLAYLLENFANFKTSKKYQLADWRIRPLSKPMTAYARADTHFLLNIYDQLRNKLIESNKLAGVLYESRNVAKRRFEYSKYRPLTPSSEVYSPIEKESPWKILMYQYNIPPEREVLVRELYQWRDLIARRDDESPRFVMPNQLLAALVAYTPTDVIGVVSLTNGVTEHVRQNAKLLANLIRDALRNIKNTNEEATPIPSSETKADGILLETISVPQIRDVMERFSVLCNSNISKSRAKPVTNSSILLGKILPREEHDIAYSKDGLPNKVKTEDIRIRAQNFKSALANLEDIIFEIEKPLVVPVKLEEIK

[5] = biological target: Exo11(44exo-/6exo-) Lassoless (Saccharomyces cerevisiae, UniProt Q12149;Q08162;P46948;Q12277;P25359;Q05636;P53256;P48240;P38792;Q08285;P53859 …, D238N;D551N)
[6] = biological target: Exo10(6exo-) Partial lasso (Saccharomyces cerevisiae, UniProt Q12149;P46948;Q12277;P25359;Q05636;P53256;P48240;P38792;Q08285;P53859 …, D238N)
[7] = biological target: Exo10(6exo-) Lassoless (Saccharomyces cerevisiae, UniProt Q12149;P46948;Q12277;P25359;Q05636;P53256;P48240;P38792;Q08285;P53859 …, D238N)

B1: AU-rich RNA 24 nt (ssRNA)
RNA: AUUAUUUAUUUAUUAUUAUUUAUU
[1]
  binding result: binds

B2: 37 nt polyA RNA (ssRNA)
RNA: AAAAAAAAAAAAAAAAAAAAAAAAAAAAAAAAAAAAA
[2]
  binding signal: 4 fold tighter than lassoless (P4)
[3]
  binding signal: 6 fold tighter than lassoless (P4)
[4]
  binding signal: 4 fold weaker than lasso-containing (P3)
[5]
  binding signal: 6 fold weaker than P9
[6]
  binding signal: > 15 fold weaker than P6
[7]
  binding signal: > 15 fold weaker than P6
